What was measured:
[1] = target: HLA-A2-pol (biotinylated HLA-A2 plus HIV-1 polymerase 476-484, immobilised on streptavidin) (human; HIV-1)
[2] = target: HLA-A2-flu (biotinylated HLA-A2 plus Influenza matrix protein 58-66, immobilised on streptavidin) (human; Influenza); assay: SPR (BIAcore) equilibrium binding, immobilised HLA-A2-flu, 37 °C, mean ± range

B1: soluble CD8αα receptor (residues 1-120 of the mature human CD8α protein, expressed in E. coli and refolded as a homodimer) (receptor)
chain: not shown
notes: also called sCD8αα; CD8 A
Question: For B1, which koff [1] is on record?
Answer: 18 s⁻¹

Question: And the kon [1]?
Answer: ≥ 140000 M⁻¹ s⁻¹

Question: And the Kd [2]?
Answer: 629 µM

From patent US20070191278A1 (AVIDEX, published 2007)
